Data taken from US20180244785A1 (MERRIMACK PHARMACEUTICALS, published 2018).
Changes are numbered by the printed parent chain.

T1: 6His-Fc-FGFR1c (human, UniProt P11362 141-376)
T1 construct: not shown: 6His tag and Fc as named in '6His-Fc-FGFR'
T1 sequence: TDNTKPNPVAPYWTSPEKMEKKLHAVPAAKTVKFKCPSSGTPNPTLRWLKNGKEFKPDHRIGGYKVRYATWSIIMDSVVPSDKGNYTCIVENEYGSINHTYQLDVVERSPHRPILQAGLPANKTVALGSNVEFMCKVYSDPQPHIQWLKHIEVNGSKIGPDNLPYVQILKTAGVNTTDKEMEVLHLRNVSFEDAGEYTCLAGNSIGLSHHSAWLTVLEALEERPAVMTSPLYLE

T2: 6His-Fc-FGFR4 (human, UniProt P22455 144-369)
T2 construct: not shown: 6His tag and Fc as named in '6His-Fc-FGFR'
T2 sequence: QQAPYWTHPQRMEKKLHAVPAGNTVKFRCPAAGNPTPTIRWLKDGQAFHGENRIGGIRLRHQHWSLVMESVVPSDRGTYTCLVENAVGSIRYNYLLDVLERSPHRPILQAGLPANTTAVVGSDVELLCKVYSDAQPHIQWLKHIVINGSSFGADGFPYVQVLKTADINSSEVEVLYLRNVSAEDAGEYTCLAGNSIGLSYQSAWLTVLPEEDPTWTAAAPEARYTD

T3: soluble FGFR4 receptor protein (human, UniProt P22455 144-369)
T3 sequence: T2 sequence

T4: soluble FGFR1c receptor protein (human, UniProt P11362 141-376)
T4 sequence: T1 sequence

T5: soluble FGFR3c receptor protein (human, UniProt P22607 141-372)
T5 sequence: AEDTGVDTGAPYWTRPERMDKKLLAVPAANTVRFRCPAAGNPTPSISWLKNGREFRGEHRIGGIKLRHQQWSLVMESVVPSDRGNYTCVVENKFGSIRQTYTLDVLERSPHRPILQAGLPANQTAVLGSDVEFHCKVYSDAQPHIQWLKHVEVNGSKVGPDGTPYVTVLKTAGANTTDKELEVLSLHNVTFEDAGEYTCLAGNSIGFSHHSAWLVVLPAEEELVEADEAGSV

B1: Ab59 (antibody, human IgG2, kappa, V domains shown)
VH: EVQLLESGGGVVQPGRSLRLSCAASGFTFSSYAMHWVRQAPGKGLEWVAVISYDGSNKYYADSVKGRFTISRDNSKNTLSLQMNSLRVEDTAIYYCVRGAGRGYPYGPDGFDIWGQGTMVTVSS
VL: DIVMTQTPLSLSVTPGQPASISCTSSRSLLHSDGKTYVYWYVQKSGQPPQLLIYELSNRFSGVPDRFSGSGSRTDFTLKISRVEAEDVGVYYCMQYIEAPLTFGGGTKVEIKR
notes: format in the assays not spelled out
B2: Ab40 (antibody, human IgG2, kappa, V domains shown)
VH: B1 VH with R102M, Y104L, P105T
VL: B1 VL with T24R
notes: as for B1
B3: Ab41 (antibody, human IgG2, kappa, V domains shown)
VH: B1 VH with R102L, Y104F
VL: B1 VL with T24R
notes: as for B1
B4: Vk2 combined with the VH of Ab15 (antibody, V domains shown)
VH: B1 VH with P105T
VL: DIVMTQTPLSLSVTPGQPASISCTSSRSLLHSDGKTYVYWYLQKPGQPPQLLIYELSNRFSGVPDRFSGSGSRTDFTLKISRVEAEDVGVYYCMQYIEAPLTFGGGTKVEIK
notes: captured on anti-human IgG Fc tips
B5: Vh1 combined with the VL of Ab15 (antibody, V domains shown)
VH: B1 VH with L5V, S80Y, V88A, P105T
VL: B4 VL with L42V, P45S
notes: as for B4
B6: Vh2 combined with the VL of Ab15 (antibody, V domains shown)
VH: B1 VH with L5V, S80Y, V88A, I93V, V97A, P105T
VL: B4 VL with L42V, P45S
notes: as for B4
B7: Vk1 combined with the VH of Ab15 (antibody, V domains shown)
VH: B1 VH with P105T
VL: B4 VL with V38L
notes: as for B4
B8: Vk3 combined with the VH of Ab15 (antibody, V domains shown)
VH: B1 VH with P105T
VL: B4 VL with P45S
notes: as for B4
B9: Vk5 combined with the VH of Ab15 (antibody, V domains shown)
VH: B1 VH with P105T
VL: B4 VL with T24R, R73G
notes: as for B4
B10: Vk6 combined with the VH of Ab15 (antibody, V domains shown)
VH: B1 VH with P105T
VL: B4 VL with T24K, R27Q, V38L, R73G
notes: as for B4
B11: Vk7 combined with the VH of Ab15 (antibody, V domains shown)
VH: B1 VH with P105T
VL: B4 VL with T7S, S12P, Q17E, T24K, R27Q, V38L, R73G
notes: as for B4
B12: Vk11 combined with the VH of Ab15 (antibody, V domains shown)
VH: B1 VH with P105T
VL: B4 VL with T7S, S12P, Q17E, P48S, L51V, R73G
notes: as for B4
B13: Vk12 combined with the VH of Ab15 (antibody, V domains shown)
VH: B1 VH with P105T
VL: B4 VL with T7S, S12P, Q17E, P48S, R73G
notes: as for B4
B14: Vk9 combined with the VH of Ab15 (antibody, V domains shown)
VH: B1 VH with P105T
VL: DIVMTQSPDSLAVSLGERATINCKSSQSLLHSDGKTYVYWYQQKPGQPPKLLIYELSNRFSGVPDRFSGSGSGTDFTLTISSLQAEDVAVYYCMQYIEAPLTFGGGTKVEIK
notes: as for B4
B15: Vk10 combined with the VH of Ab15 (antibody, V domains shown)
VH: B1 VH with P105T
VL: B14 VL with N22S, K24T, Q27R, G73R
notes: as for B4

What follows are binders tested against T1, 6His-Fc-FGFR1c (assay: competition ELISA, blocks 6His-Fc-FGFR1c binding to coated FGF2).
Protocol: (§1) ELISA plates were coated with 50 ug/ml Heparin Sulfate (HSPG) (Sigma Aldrich) and incubated overnight at room temperature. Plates were then washed extensively with PBS containing 0.05% v/v Tween20 (PBST). Plates were then blocked with 2.5% BSA in PBST for one hour and washed extensively as before. 40-60 μL of FGF1 or FGF2 was then added to each well at 40 μg/ml and allowed to bind at room temperature for 2 hours. Plates were then washed extensively with PBST as before. Stock solutions of each 6His-Fc-FGFR (FGFR1-4) were prepared at 500 ng/ml in 2% v/v BSA-PBST and each antibody was prepared as a 2×-dilution series in 2% v/v BSA-PBST. Antibodies dilution series and 6His-Fc-FGFR1-4 were diluted in a 1:1 fashion and immediately added to the relative wells of the plate and allowed to bind for 2 hours at room temperature. Plates were washed extensively as before with PBST and the remaining fraction of bound 6His-Fc-FGFR was detected using a polyclonal-anti-His-6-HRP conjugated antibody (Abcam) for one hour at room temperature. After extensive washing with PBST, 50 μl of Pierce Chemiluminescent substrate (Thermo Fisher Scientific, Rockford, USA) was added and plates were measured on an Envision plate reader (Perkin Elmer). Raw data was background corrected and plotted using Prism software. […]

Row | Binder | IC50 [nM]
1 | B1 | 2.22
2 | B2 | 4.85
3 | B3 | 3.53

What follows are binders tested against T2, 6His-Fc-FGFR4 (assay: competition ELISA, blocks 6His-Fc-FGFR4 binding to coated FGF2).
Protocol: as §1

Row | Binder | IC50 [nM]
4 | B1 | ~6.86
5 | B2 | 17.5
6 | B3 | 9.87

Each binder was assayed against T3, soluble FGFR4 receptor protein (assay: BLI Octet RED96, antibody on anti-hIgG Fc tip).
Protocol: (§2) Briefly, the Pall ForteBio Octet RED96 Bio-Layer Interferometry system was used to determine the specificity of anti-FGFR antibodies for FGFR1c, FGFR2c, FGFR3c, and FGFR4. The antibodies and soluble receptor proteins were prepared in PBS at a concentration of 300 nM. First, the candidate antibodies were immobilized on the surface of anti-human IgG Fc biosensor tips for 120 seconds. After immobilization, the biosensors were dipped in PBS solution for 60 seconds (baseline step) to assess assay drift, and determine loading level of antibodies. The baseline step was followed by an association step of 300 seconds wherein the binding interaction between the immobilized antibodies and soluble receptors was measured. Following the association step, the biosensors were dipped into PBS buffer for 600 seconds to measure the dissociation of the bound receptor proteins from the immobilized antibodies. Each binding response was measured and reported real time on a sensorgram trace. For data analysis, a simple 1:1 binding model was used which measures the rate of complex formation of one immobilized antibody and one soluble receptor protein.

Row | Binder | Kd [nM] | koff [s⁻¹] | kon [M⁻¹ s⁻¹]
7 | B4 | 7.06 | 0.000888 | 126000
8 | B5 | 4.01 | 0.000682 | 170000
9 | B6 | 2.84 | 0.000492 | 173000
10 | B7 | 8.75 | 0.00105 | 120000
11 | B8 | 6.79 | 0.000855 | 126000
12 | B9 | 6.05 | 0.000752 | 124000
13 | B10 | 9.31 | 0.00112 | 120000
14 | B11 | 8.33 | 0.00101 | 121000
15 | B12 | 8.47 | 0.00106 | 125000
16 | B13 | 7.01 | 0.000925 | 132000
17 | B14 | 4.89 | 0.000692 | 142000
18 | B15 | 4.43 | 0.000585 | 132000

These binders were tested against T4, soluble FGFR1c receptor protein (assay: BLI Octet RED96, antibody on anti-hIgG Fc tip).
Protocol: as §2

Row | Binder | Kd [nM] | koff [s⁻¹] | kon [M⁻¹ s⁻¹]
19 | B4 | 5.74 | 0.000313 | 54500
20 | B5 | 7.49 | 0.000356 | 47500
21 | B6 | 5.41 | 0.000269 | 49700
22 | B7 | 4.7 | 0.000243 | 51700
23 | B8 | 4.79 | 0.000262 | 54600
24 | B9 | 3.98 | 0.000215 | 54100
25 | B10 | 6.45 | 0.000344 | 53400
26 | B11 | 5.84 | 0.000336 | 57600
27 | B12 | 7.62 | 0.000327 | 42900
28 | B13 | 6.51 | 0.000345 | 53000
29 | B14 | 2.39 | 0.000137 | 57200
30 | B15 | 5.33 | 0.000294 | 55200

What follows are binders tested against soluble FGFR2c receptor protein (human, UniProt P21802 148-377) (assay: BLI Octet RED96, antibody on anti-hIgG Fc tip).
Sequence of soluble FGFR2c receptor protein (P21802 148-377): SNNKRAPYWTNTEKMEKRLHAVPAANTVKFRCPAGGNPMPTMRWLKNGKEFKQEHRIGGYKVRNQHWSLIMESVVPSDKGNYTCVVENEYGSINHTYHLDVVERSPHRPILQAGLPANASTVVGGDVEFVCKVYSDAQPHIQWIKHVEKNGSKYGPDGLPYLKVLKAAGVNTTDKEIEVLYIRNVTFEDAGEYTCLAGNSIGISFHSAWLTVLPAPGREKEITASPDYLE
Protocol: as §2

Row | Binder | Kd [nM] | koff [s⁻¹] | kon [M⁻¹ s⁻¹]
31 | B4 | 10.8 | 0.00228 | 211000
32 | B5 | 10.9 | 0.0024 | 221000
33 | B6 | 7.55 | 0.00156 | 207000
34 | B7 | 12.7 | 0.00245 | 193000
35 | B8 | 10.3 | 0.0022 | 214000
36 | B9 | 8.88 | 0.00176 | 198000
37 | B10 | 14.3 | 0.00313 | 219000
38 | B11 | 13.1 | 0.00274 | 210000
39 | B12 | 10.9 | 0.00231 | 212000
40 | B13 | 9.76 | 0.0021 | 215000
41 | B14 | 7.35 | 0.00172 | 234000
42 | B15 | 6.49 | 0.00142 | 220000

These binders were tested against T5, soluble FGFR3c receptor protein (assay: BLI Octet RED96, antibody on anti-hIgG Fc tip).
Protocol: as §2

Row | Binder | Kd [nM] | koff [s⁻¹] | kon [M⁻¹ s⁻¹]
43 | B4 | 9.2 | 0.0011 | 120000
44 | B5 | 8.56 | 0.001 | 117000
45 | B6 | 6.41 | 0.000775 | 121000
46 | B7 | 12.3 | 0.00138 | 113000
47 | B8 | 7.97 | 0.00101 | 126000
48 | B9 | 7 | 0.000891 | 127000
49 | B10 | 12.9 | 0.00157 | 121000
50 | B11 | 8.7 | 0.00104 | 120000
51 | B12 | 11.1 | 0.0013 | 117000
52 | B13 | 6.38 | 0.000806 | 126000
53 | B14 | 5.43 | 0.000749 | 138000
54 | B15 | 5.23 | 0.000701 | 134000
